Laboratory results as given in article PMC3832608.
One block for each binder: values may come before it.

Biological target: T1, Corticotropin Releasing Factor receptor 2 (CRF2) (human (endogenous in HT-29)) (UniProt Q13324)
T1 sequence: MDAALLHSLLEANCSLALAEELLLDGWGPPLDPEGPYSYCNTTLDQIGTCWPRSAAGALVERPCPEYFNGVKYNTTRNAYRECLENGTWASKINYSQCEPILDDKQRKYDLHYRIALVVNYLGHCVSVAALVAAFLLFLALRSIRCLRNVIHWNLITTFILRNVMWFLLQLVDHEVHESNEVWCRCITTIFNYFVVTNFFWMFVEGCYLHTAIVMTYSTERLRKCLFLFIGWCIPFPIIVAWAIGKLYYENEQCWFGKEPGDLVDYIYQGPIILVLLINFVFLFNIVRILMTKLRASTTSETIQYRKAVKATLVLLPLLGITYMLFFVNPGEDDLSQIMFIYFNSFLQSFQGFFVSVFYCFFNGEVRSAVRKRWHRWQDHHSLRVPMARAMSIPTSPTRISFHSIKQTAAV

- cAMP production by HT-29 cells treated with 1 µM CRF (ELISA kit); completely reversed by 1 µM astressin2b (A2b) (pM of cAMP/10^5 cells): 0.5
Binder: SEEPPISLDLTFHLLREVLEMARAEQLAQQAHSNRKLMEIIGK [Corticotropin releasing factor (CRF)]

- cAMP production by HT-29 cells treated with 1 µM Ucn2 (ELISA kit); completely reversed by 1 µM astressin2b (A2b) (pM of cAMP/10^5 cells): 1
Binder: IVLSLDVPIGLLQILLEQARARAAREQATTNARILARVGHC [Urocortin 2 (Ucn2)]

- cAMP production by HT-29 cells treated with 1 µM Ucn3 (ELISA kit); completely reversed by 1 µM astressin2b (A2b) (pM of cAMP/10^5 cells): 2.4
Binder: FTLSLDVPTNIMNLLFNIAKAKNLRAQAAANAHLMAQI [Urocortin 3 (Ucn3)]
